Reference: paper PMC12881670, “Investigation into ligand selectivity and bias at the formyl peptide receptor family” (The Journal of Pharmacology and Experimental Therapeutics, 2025)
Where no end group is shown, it is not given here. [ ]: non-standard residue; d: D form.

Tests used:
FPR1 = details: at 100 nM; cited from earlier work
[1] = target: T1, FLAG-tagged human FPR2 (Hs_FPR2) (human, UniProt P25090 1-351); assay: cell-based or functional assay
T1 sequence (looked up): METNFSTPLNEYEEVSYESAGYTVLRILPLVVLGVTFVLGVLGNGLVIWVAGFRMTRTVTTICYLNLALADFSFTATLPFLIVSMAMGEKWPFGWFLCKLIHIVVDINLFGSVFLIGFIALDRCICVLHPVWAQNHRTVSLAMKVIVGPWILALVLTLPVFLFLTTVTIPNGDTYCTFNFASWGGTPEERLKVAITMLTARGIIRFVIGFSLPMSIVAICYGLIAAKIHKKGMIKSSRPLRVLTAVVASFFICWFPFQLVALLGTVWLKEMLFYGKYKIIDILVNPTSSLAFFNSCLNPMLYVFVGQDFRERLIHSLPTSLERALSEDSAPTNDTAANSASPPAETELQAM

[2] = target: T2, FLAG-tagged mouse Fpr2 (Mm_Fpr2) (mouse, UniProt O88536 1-351); assay: cell-based or functional assay
T2 sequence (looked up): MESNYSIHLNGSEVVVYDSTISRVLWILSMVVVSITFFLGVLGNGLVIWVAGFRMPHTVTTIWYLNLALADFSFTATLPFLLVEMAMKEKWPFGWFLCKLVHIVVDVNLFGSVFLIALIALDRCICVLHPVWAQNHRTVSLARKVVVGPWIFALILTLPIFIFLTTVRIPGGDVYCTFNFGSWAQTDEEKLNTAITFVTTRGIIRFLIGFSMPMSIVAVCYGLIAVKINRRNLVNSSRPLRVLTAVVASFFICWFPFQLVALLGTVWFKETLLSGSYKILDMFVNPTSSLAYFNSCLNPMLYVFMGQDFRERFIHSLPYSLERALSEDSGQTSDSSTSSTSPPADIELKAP

[3] = target: T3, FLAG-tagged mouse Fpr1 (Mm_Fpr1) (mouse, UniProt P33766 1-364); assay: cell-based or functional assay
T3 sequence (looked up): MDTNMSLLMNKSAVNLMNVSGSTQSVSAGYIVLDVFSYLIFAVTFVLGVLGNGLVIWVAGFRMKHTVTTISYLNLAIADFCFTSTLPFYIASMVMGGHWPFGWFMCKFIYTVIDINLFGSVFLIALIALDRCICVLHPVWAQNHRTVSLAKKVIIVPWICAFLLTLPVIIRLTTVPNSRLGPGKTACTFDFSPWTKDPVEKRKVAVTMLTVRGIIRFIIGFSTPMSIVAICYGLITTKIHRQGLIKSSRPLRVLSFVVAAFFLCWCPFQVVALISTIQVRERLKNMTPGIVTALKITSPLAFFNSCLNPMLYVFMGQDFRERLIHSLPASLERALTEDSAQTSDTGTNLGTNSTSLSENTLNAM

[4] = target: T4, FLAG-tagged human FPR1 (Hs_FPR1) (human, UniProt P21462 1-350); assay: cell-based or functional assay
T4 sequence (looked up): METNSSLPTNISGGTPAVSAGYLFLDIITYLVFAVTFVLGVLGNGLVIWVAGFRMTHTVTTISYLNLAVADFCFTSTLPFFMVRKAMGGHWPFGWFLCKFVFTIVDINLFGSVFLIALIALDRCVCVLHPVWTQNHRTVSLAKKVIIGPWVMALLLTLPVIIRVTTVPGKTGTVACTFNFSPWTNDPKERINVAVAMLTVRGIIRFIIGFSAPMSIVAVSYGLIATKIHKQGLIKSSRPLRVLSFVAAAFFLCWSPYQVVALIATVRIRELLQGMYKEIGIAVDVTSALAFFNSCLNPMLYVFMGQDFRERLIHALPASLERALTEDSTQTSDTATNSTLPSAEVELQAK

[5] = target: T3, FLAG-tagged mouse Fpr1 (Mm_Fpr1); assay: cell-based or functional assay; remark: listed apart in the source
[6] = target: T5, FLAG-Mm_Fpr2 C-terminally fused to Renilla Luciferase 8 (mouse, UniProt O88536 1-351); assay: cell-based or functional assay
T5 sequence (looked up): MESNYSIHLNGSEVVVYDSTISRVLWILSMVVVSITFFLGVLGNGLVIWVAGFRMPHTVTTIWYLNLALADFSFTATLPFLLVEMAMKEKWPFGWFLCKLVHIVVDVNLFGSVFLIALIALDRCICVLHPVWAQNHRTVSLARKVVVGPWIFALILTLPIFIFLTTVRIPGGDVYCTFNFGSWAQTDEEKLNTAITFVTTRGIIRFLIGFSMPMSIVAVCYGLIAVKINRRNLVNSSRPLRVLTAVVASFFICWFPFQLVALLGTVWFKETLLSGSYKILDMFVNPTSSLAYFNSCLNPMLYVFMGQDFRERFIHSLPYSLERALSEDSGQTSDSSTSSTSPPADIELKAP

[7] = target: T6, FLAG-Mm_Fpr1 C-terminally fused to Renilla Luciferase 8 (mouse, UniProt P33766 1-364); assay: cell-based or functional assay
T6 sequence (looked up): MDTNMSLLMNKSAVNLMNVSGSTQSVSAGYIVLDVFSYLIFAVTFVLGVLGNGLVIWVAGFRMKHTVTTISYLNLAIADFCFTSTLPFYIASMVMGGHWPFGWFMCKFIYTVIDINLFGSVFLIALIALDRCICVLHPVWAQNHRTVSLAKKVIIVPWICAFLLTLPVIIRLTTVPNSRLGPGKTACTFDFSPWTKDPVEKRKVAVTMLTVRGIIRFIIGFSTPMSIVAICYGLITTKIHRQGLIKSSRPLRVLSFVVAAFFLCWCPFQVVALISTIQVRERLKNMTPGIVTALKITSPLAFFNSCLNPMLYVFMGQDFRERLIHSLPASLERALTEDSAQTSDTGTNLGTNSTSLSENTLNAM

[8] = target: T7, FLAG-Hs_FPR1 C-terminally fused to Renilla Luciferase 8 (human, UniProt P21462 1-350); assay: cell-based or functional assay
T7 sequence (looked up): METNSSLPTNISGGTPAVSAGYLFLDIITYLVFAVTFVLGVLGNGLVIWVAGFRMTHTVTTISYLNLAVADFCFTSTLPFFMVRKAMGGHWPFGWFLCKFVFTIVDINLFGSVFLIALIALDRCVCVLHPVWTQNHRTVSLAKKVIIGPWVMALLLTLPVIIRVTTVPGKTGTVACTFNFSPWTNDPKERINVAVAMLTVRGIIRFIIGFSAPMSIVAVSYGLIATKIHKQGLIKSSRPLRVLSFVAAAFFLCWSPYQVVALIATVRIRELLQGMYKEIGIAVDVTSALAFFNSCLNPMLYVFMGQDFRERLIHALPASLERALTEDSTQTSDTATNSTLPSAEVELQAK

[9] = target: T8, FLAG-Hs_FPR2 C-terminally fused to Renilla Luciferase 8 (human, UniProt P25090 1-351); assay: cell-based or functional assay
T8 sequence (looked up): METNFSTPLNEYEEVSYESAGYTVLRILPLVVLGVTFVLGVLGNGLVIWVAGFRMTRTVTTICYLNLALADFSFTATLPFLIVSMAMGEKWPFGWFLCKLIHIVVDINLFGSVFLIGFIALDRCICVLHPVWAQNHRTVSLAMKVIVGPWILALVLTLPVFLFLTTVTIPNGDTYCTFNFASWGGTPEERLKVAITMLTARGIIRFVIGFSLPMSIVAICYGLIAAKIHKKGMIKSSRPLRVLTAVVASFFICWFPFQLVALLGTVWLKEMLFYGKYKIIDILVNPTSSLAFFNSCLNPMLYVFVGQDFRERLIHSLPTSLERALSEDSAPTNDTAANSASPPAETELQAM

[10] = target: T2, FLAG-tagged mouse Fpr2 (Mm_Fpr2); assay: flow cytometry on cells; competition binding: HEK293 cells stably expressing the receptor, lifted in PBS, on ice 90 min with 10 nM K(5/6-FAM)-WKYMVm and increasing unlabeled ligand; mean fluorescence of 5000 cells as % of that without competitor; One site-Fit logIC50
[11] = target: T3, FLAG-tagged mouse Fpr1 (Mm_Fpr1); assay: as above
[12] = target: T4, FLAG-tagged human FPR1 (Hs_FPR1); assay: as above

## Cc1cccc(-c2oc(C)nc2C(=O)Nc2cnn(Cc3nc(C(C)(F)F)co3)n2)c1 [ACT-389949]
FPR1
  arrestin recruitment to FPR1, Pathhunter: neither WKYMVM nor ACT-389949 resulted in recruitment

B1: WKYMVm (peptide)
peptide: WKYMV[dM]
notes: the last residue is the D form; the bought peptide is probably also an amide (surmise); source: bought: Tocris
[1]
  receptor internalization (flow cytometry): Emax (% of 1 μM WKYMVm): 97.5%
  receptor internalization (flow cytometry): Log EC50 (M): -8 log M
[2]
  receptor internalization (flow cytometry): Emax (% of 1 μM WKYMVm): 102%
  receptor internalization (flow cytometry): Log EC50 (M): -7.66 log M
[3]
  receptor internalization (flow cytometry): Emax (% of 1 μM WKYMVm): 108%
  receptor internalization (flow cytometry): Log EC50 (M): -8.01 log M
[4]
  receptor internalization (flow cytometry): Emax (% of 1 μM WKYMVm): 106%
  receptor internalization (flow cytometry): Log EC50 (M): -7.49 log M
[5]
  ERK1/2 phosphorylation (Western blot): Emax (% of 1 μM WKYMVm): 102%
  ERK1/2 phosphorylation (Western blot): Log EC50 (M): -8.43 log M
[6]
  BRET of receptor-RLuc8 with Arrestin 3-YFP: Emax (% of 1 μM WKYMVm): 101%
  BRET of receptor-RLuc8 with Arrestin 3-YFP: Log EC50 (M): -7.46 log M
[7]
  BRET of receptor-RLuc8 with Arrestin 3-YFP: Emax (% of 1 μM WKYMVm): 112%
  BRET of receptor-RLuc8 with Arrestin 3-YFP: Log EC50 (M): -6.8 log M
[8]
  BRET of receptor-RLuc8 with Arrestin 3-YFP: Emax (% of 1 μM WKYMVm): 105%
  BRET of receptor-RLuc8 with Arrestin 3-YFP: Log EC50 (M): -7.3 log M
[9]
  BRET of receptor-RLuc8 with Arrestin 3-YFP: Emax (% of 1 μM WKYMVm): 102%
  BRET of receptor-RLuc8 with Arrestin 3-YFP: Log EC50 (M): -8.13 log M
[10]
  Log IC50: -7.18 log M
  Max Comp (%): 97.5%
[11]
  Log IC50: -6.79 log M
  Max Comp (%): 97%
[12]
  Log IC50: -7.42 log M
  Max Comp (%): 96.8%
